Laboratory results reported in patent US20230257476A1 (ELANCO US, published 2023).

Target: T1, canine CD20 (canine, UniProt Q3C2E2 1-297)
T1 construct: whole, on cells; Endogenous antigen in acetone-fixed tissue cryosections (IHC); also called CD20 protein in dogs
T1 sequence (looked up): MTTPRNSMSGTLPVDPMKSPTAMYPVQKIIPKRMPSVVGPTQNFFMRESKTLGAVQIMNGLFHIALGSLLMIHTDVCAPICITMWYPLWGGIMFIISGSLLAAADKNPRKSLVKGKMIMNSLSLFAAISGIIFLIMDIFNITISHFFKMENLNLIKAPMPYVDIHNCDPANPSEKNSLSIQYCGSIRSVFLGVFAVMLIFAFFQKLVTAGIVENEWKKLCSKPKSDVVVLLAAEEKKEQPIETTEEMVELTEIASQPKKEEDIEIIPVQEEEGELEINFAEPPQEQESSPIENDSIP
Experiment: IHC, precomplexed with biotinylated rabbit anti-dog IgG, cryosections of canine spleen, 10 ug/mL
Procedure: The detection reagent or negative control antibody (at a concentration of 10 […]) was mixed with biotinylated rabbit anti-dog IgG, Fc fragment-specific antibody (RbaDglgG) at a concentration of 15 ug/mL to achieve a primary : secondary antibody ratio of 1:1.5 on the day prior to staining.
Precomplexed antibodies were incubated overnight on a rocker mechanism in a refrigerator set to maintain 4° C., Prior to use of the antibody on the subsequent day, dog gamma globulins were added to each vial to achieve a final concentration of 3 mg/mL, and then incubated for at least 2 hours on the rocker mechanism in a refrigerator set to maintain 4° C. Slides were fixed in acetone for 10 minutes at room temperature at the time of sectioning. On the day of staining, the slides were rinsed twice with Tris-buffered saline, 0.15M NaCl, pH 7.6 TBS. Endogenous peroxidase was then quenched by incubation of the slides with an appropriate reagent such as Biocare PeroxAbolish reagent for 5 minutes at room temperature. Next, the slides were rinsed twice with TBS, incubated with the avidin solution for 15 minutes, rinsed once with TBS, incubated with the biotin solution for 15 minutes, and rinsed once with TBS, The slides were then treated with a protein block designed to reduce nonspecific binding for 20 minutes.

- binding result: binds
B1: K9LO-133 (antibody, V domains shown)
VH: EVQLVQSGAEVKKPGESLKISCKGSGRTFTSYNMHWVRQMPGKGLEWMGAIYPLTGDTSYNQKSKLQVTISADKSISTAYLQWSSLKASDTAMYYCARSTYVGGDWQFDVWGKGTTVTVSS
VL: EIVLTQSPGTLSLSPGERATLSCRASRSVPYIHWYQQKPGQAPRLLIYATSALASGIPDRFSGSGSGTDFTLTISRLEPEDFAVYYCQQWLSNPPTFGQGTKLEIKR
notes: In the IHC it was precomplexed with biotinylated rabbit anti-dog IgG Fc antibody; also called chimeric canine isotype C monoclonal antibody directed against canine CD20
